Where a chain is given by its changes, count along the chain named. One block for each binder: values may come before it.
Tests used:
[1] = biological target: T1, human W3785-hProl.ECD.His (Human-TNFR2-His) protein (human, UniProt P20333 23-257); experiment: BLI (Octet Red96e), antibody on AHC sensor, Human-TNFR2-His in solution, multiple concentrations
T1 construct: extracellular domain; not shown: His tag
T1 sequence (looked up): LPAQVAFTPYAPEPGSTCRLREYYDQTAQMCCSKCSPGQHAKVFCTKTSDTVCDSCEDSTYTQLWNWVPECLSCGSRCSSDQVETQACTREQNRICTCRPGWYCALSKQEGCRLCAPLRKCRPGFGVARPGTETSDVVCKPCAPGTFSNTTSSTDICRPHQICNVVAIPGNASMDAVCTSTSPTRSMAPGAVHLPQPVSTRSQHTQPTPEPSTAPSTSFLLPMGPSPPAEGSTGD

[2] = biological target: T1, human W3785-hProl.ECD.His …; experiment: indirect ELISA on coated Human-TNFR2-His
Method: (1) Coating: Human-TNFR2-His was diluted to 0.5 μg/mL with coating solution (1×PBS, pH 7.4), and coated into a 96-well ELISA plate at 100 μL/well at 4° C. overnight. The coating solution was poured off, and the plate was washed with 1×PBST at 300 μL per well, washed with a plate cleaning instrument for 4 times, and patted dry on sheet paper. [0184] (2) Blocking: it was blocked with 3% non-fat dry milk at 300 μL/well, and incubated at 37° C. for 1 h. The blocking solution was poured off, washed by a plate cleaning instrument for 4 times, and patted dry on sheet paper. [0185] (3) Sample dilution: the reference product and the test product were diluted with 3% non-fat dry milk to 10 μg/mL, and this was used as the initial concentration for 3-fold dilution with a total of 11 gradients of dilution, and another one blank well was set up, and only diluent was added. It was incubated at 100 μL/well at 37° C. for 1 h. Liquid in the wells was discarded, washed by a plate cleaning instrument for 4 times, and patted dry on the sheet paper. [0186] (4) Addition of enzyme-labeled secondary antibody: Peroxidase-conjugated AffiniPure F(ab′)2 Fragment Goat Anti-Human IgG was diluted with 3% non-fat dry milk at 1:20,000. It was incubated at 100 μL/well at 37° C. for 1 h. It was washed by a plate cleaning instrument for 6 times and patted dry on sheet paper. […] (5) Color development: TMB color development solution was added at 100 μL/well and wrapped with aluminium foil, and the color was developed at 37° C. without light for 8 min. [0188] (6) Termination of color development: terminal solution 1 M HCl was added to terminate the color development reaction at 100 μL/well. [0189] (7) Reading at 450 nm on the enzyme labeler. [0190]

Kd [1]: 0.177 nM | koff [1]: 0.000145 s⁻¹ | kon [1]: 821000 M⁻¹ s⁻¹ | EC50 [2]: 0.0147 µg/mL
B1: Antibody 21 (antibody, V domains shown)
VH: EVQLVESGGGLVKPGGSLRLSCAASGFTFSNAWMGWVRQAPEKGLEWVGQIKDKSNNYPTYYAESVKGRFTISRDDSKNTLYLQMNSLKTEDTAVYYCTTYGDFFDYWGQGTLVTVSS
VL: DIQMTQSPSSLSASVGDRVTITCRASEDIYNALAWYQQKPGKVPKLLLYNANSLHTGVPSRFSGSGSGTDYTLTISSLQPEDFATYFCQQYYDHPLTFGQGTKLEIK
notes: detected with anti-human IgG and captured on AHC sensors

Kd [1]: 0.33 nM | koff [1]: 0.000165 s⁻¹ | kon [1]: 500000 M⁻¹ s⁻¹ | EC50 [2]: 0.0137 µg/mL
B2: Antibody 22 (antibody, V domains shown)
VH: B1 VH
VL: B1 VL with N31Q, A32G
notes: as for B1

Reference: US20250320303A1 (SHENGHE CHINA BIOPHARMACEUTICAL, published 2025)
